Values of other authors, collected in paper PMC5116031.

Target: BECN1 CCD (Rattus norvegicus) (UniProt Q91XJ1)

BECN1 CCD, sequence (Q91XJ1 174-266): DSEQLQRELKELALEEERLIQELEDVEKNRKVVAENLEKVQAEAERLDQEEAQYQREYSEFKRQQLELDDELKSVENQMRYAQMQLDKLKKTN

Substance: BECN1 CCD (from UniProt Q91XJ1)
- Kd: 89 µM
